# According to US20030147847A1 (IMMUNEX, published 2003):
# T1: NKG2D/Dap10 on transfected 293E cells (UniProt P26718 1-216; Q9UBK5 19-93)
# T1 construct: whole, on cells; Co-expressed on 293 EBNA (293E) cells from the pDC409 vector; also called NKG2D+FLAG tagged Dap10
# T1 sequence 1: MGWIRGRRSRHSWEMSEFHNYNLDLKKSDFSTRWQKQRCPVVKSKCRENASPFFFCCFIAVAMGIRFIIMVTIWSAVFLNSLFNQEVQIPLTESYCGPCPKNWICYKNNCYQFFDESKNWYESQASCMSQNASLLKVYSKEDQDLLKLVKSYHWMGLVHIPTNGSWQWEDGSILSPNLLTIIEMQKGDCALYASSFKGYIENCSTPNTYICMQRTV
# T1 sequence 2: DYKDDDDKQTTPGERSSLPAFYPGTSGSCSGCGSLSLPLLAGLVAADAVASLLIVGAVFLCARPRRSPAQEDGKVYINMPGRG
# T2: FLAG tagged Dap10 alone on transfected 293 EBNA cells (UniProt Q9UBK5 19-93)
# T2 construct: whole, on cells
# T2 sequence: T1 sequence 2
# T3: Full length UL16 on transfected 293 EBNA cells (human cytomegalovirus, UniProt P16757 27-230)
# T3 construct: whole, on cells; also called UL16 FL
# T3 sequence: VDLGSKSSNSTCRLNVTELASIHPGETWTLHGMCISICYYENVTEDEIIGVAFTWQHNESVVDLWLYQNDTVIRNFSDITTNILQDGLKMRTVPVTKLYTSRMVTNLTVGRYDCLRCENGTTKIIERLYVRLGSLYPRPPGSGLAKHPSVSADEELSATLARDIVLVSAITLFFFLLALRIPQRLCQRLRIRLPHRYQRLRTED
# T4: NKG2D alone on transfected 293 EBNA cells (UniProt P26718 1-216, limits assumed)
# T4 construct: whole, on cells
# T4 sequence (looked up): T1 sequence 1
# B1: human ULBP2-Fc fusion polypeptide (Fc fusion)
# chain: WSRAGRADPHSLCYDITVIPKFRPGPRWCAVQGQVDEKTFLHYDCGNKTVTPVSPLGKKLNVTTAWKAQNPVLREVVDILTEQLRDIQLENYTPKEPLTLQARMSCEQKAEGHSSGSWQFSFDGQIFLLFDSEKRMWTTVHPGARKMKEKWENDKVVAMSFHYFSMGDCIGWLEDFLMGMDSTLEPSAGAPLAMSSGTTQLRRSCDKTHTCPPCPAPEAEGAPSVFLFPPKPKDTLMISRTPEVTCVVVDVSHEDPEVKFNWYVDGVEVHNAKTKPREEQYNSTYRVVSVLTVLHQDWLNGKEYKCKVSNKALPAPIEKTISKAKGQPREPQVYTLPPSRDELTKNQVSLTCLVKGFYPSDIAVEWESNGQPENNYKTTPPVLDSDGSFFLYSKLTVDKSRWQQGNVFSCSVMHEALHNHYTQKSLSLSPGK
# notes: ULBP-2 extracellular domain (residues 1-223) fused to the human IgG1 Fc mutein
# B2: MICB/Fc (Fc fusion, UniProt Q29980 23-309, looked up)
# chain: AEPHSLRYNLMVLSQDGSVQSGFLAEGHLDGQPFLRYDRQKRRAKPQGQWAENVLGAKTWDTETEDLTENGQDLRRTLTHIKDQKGGLHSLQEIRVCEIHEDSSTRGSRHFYYDGELFLSQNLETQESTVPQSSRAQTLAMNVTNFWKEDAMKTKTHYRAMQADCLQKLQRYLKSGVAIRRTVPPMVNVTCSEVSEGNITVTCRASSFYPRNITLTWRQDGVSLSHNTQQWGDVLPDGNGTYQTWVATRIRQGEEQRFTCYMEHSGNHGTHPVPSGKALVLQSQRTD
# notes: also called MICB1/FC; not shown: Fc portion not described
# B3: UL16-Fc fusion protein (Fc fusion)
# chain: VDLGSKSSNSTCRLNVTELASIHPGETWTLHGMCISICYYENVTEDEIIGVAFTWQHNESVVDLWLYQNDTVIRNFSDITTNILQDGLKMRTVPVTKLYTSRMVTNLTVGRYDCLRCENGTTKIIERLYVRLGSLYPRPPGSGLAKHPSVSADEELSA
# notes: extracellular domain; not shown: IgG1 Fc (mutein form), as described for OX40-Fc (Baum et al., EMBO J. 13:3992-4001, 1994); the mutein is described in p-
# B4: MICA/Fc (Fc fusion, UniProt Q29983 24-307, looked up)
# chain: EPHSLRYNLTVLSWDGSVQSGFLTEVHLDGQPFLRCDRQKCRAKPQGQWAEDVLGNKTWDRETRDLTGNGKDLRMTLAHIKDQKEGLHSLQEIRVCEIHEDNSTRSSQHFYYDGELFLSQNLETKEWTMPQSSRAQTLAMNVRNFLKEDAMKTKTHYHAMHADCLQELRRYLKSGVVLRRTVPPMVNVTRSEASEGNITVTCRASGFYPWNITLSWRQDGVSLSHDTQQWGDVLPDGNGTYQTWVATRICQGEEQRFTCYMEHSGNHSTHPVPSGKVLVLQSHW
# notes: not shown: Fc portion not described
# B5: human ULBP1-Fc fusion polypeptide (Fc fusion)
# chain: WSRAGWVDTHCLCYDFIITPKSRPEPQWCEVQGLVDERPFLHYDCVNHKAKAFASLGKKVNVTKTWEEQTETLRDVVDFLKGQLLDIQVENLIPIEPLTLQARMSCEHEAHGHGRGSWQFLFNGQKFLLFDSNNRKWTALHPGAKKMTEKWEKNRDVTMFFQKISLGDCKMWLEEFLMYWEQMLDPTKPPSLAPGTTQPRSCDKTHTCPPCPAPEAEGAPSVFLFPPKPKDTLMISRTPEVTCVVVDVSHEDPEVKFNWYVDGVEVHNAKTKPREEQYNSTYRVVSVLTVLHQDWLNGKEYKCKVSNKALPAPIEKTISKAKGQPREPQVYTLPPSRDELTKNQVSLTCLVKGFYPSDIAVEWESNGQPENNYKTTPPVLDSDGSFFLYSKLTVDKSRWQQGNVFSCSVMHEALHNHYTQKSLSLSPGK
# notes: ULBP-1 extracellular domain fused to the human IgG1 Fc mutein
# Columns and labels:
# [1] = target: NKG2D/Dap10 on transfected 293E cells (UniProt P26718); test: flow cytometry, transfected 293 EBNA cells, 2 µg Fc protein + goat anti-human IgG PE
# [2] = target: NKG2D alone on transfected 293 EBNA cells (UniProt P26718); test: as above
# [3] = target: Full length UL16 on transfected 293 EBNA cells (human cytomegalovirus) (UniProt P16757); test: as above
# [4] = target: FLAG tagged Dap10 alone on transfected 293 EBNA cells (UniProt Q9UBK5); test: as above
# [5] = target: human ULBP1-Fc fusion polypeptide (human); test: flow cytometry; ULBP1/FC preincubated with excess isotype control antibody, then added to 293E cells transfected with NKG2D/Dap10; goat anti-huIg PE
# ULBP3/Fc (human) = ULBP3/Fc (human) (UniProt Q9BZM4); test: flow cytometry; ULBP3/FC preincubated with excess isotype control antibody, then added to 293E cells transfected with NKG2D/Dap10; goat anti-huIg PE
# PERB11/Fc = test: flow cytometry; PERB11/FC preincubated with excess isotype control antibody, then added to 293E cells transfected with NKG2D/Dap10; goat anti-huIg PE
# [6] = target: human ULBP2-Fc fusion polypeptide (human); test: flow cytometry; ULBP2/FC preincubated with excess isotype control antibody, then added to 293E cells transfected with NKG2D/Dap10; goat anti-huIg PE
# [7] = target: T1, NKG2D/Dap10 on transfected 293E cells; test: flow cytometry, transfected 293 EBNA cells, M1 + sheep anti-mouse IgG PE
# [8] = target: NKG2D alone on transfected 293 EBNA cells (UniProt P26718); test: as above
# [9] = target: Full length UL16 on transfected 293 EBNA cells (human cytomegalovirus) (UniProt P16757); test: as above
# [10] = target: FLAG tagged Dap10 alone on transfected 293 EBNA cells (UniProt Q9UBK5); test: as above
# [11] = target: T1, NKG2D/Dap10 on transfected 293E cells; test: flow cytometry; NKG2D/Dap10-transfected 293E cells, M1 + sheep anti-mouse IgG PE (expression control)
# [12] = target: T1, NKG2D/Dap10 on transfected 293E cells; test: as above; remark: listed apart in the source
# [13] = target: T1, NKG2D/Dap10 on transfected 293E cells; test: flow cytometry; NKG2D/Dap10-transfected 293E cells preincubated with 25 µg ULBP1/LZ (competitor)
# [14] = target: T1, NKG2D/Dap10 on transfected 293E cells; test: flow cytometry; NKG2D/Dap10-transfected 293E cells preincubated with 25 µg hCD40L/LZ (control blocking protein)
# [15] = target: T1, NKG2D/Dap10 on transfected 293E cells; test: flow cytometry, transfected 293 EBNA cells, 2 µg Fc protein + goat anti-human IgG PE
# [16] = target: T2, FLAG tagged Dap10 alone on transfected …; test: as above
# [17] = target: T3, Full length UL16 on transfected 293 …; test: as above
# [18] = target: T4, NKG2D alone on transfected 293 EBNA …; test: as above
# ULBP3/Fc (human), sequence (Q9BZM4 30-217): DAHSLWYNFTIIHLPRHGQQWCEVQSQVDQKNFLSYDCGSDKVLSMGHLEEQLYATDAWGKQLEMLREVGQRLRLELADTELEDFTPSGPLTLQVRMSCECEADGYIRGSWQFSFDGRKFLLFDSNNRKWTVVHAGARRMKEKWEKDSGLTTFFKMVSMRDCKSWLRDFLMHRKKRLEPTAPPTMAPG
Molecule,Mean Fluorescence Intensity (MFI) [13] [MFI],Mean Fluorescence Intensity (MFI) [14] [MFI],Mean Fluorescence Intensity (MFI) [15] [MFI],Mean Fluorescence Intensity (MFI) [16] [MFI],Mean Fluorescence Intensity (MFI) [17] [MFI],Mean Fluorescence Intensity (MFI) [18] [MFI],other results
p7.5/Fc (Fc fusion),–,–,–,–,–,–,Mean Fluorescence Intensity (MFI) [1]: 12.2 MFI; Mean Fluorescence Intensity (MFI) [2]: 9.99 MFI; Mean Fluorescence Intensity (MFI) [3]: 12.1 MFI; Mean Fluorescence Intensity (MFI) [4]: 12.1 MFI
antibody M90 (isotype matched control antibody),–,–,–,–,–,–,MFI of staining protein on NKG2D/Dap10 cells after preincubation with blocking antibody [5]: 216 MFI; MFI of staining protein on NKG2D/Dap10 cells after preincubation with blocking antibody (ULBP3/Fc (human)): 160 MFI; MFI of staining protein on NKG2D/Dap10 cells after preincubation with blocking antibody (PERB11/Fc): 167 MFI; MFI of staining protein on NKG2D/Dap10 cells after preincubation with blocking antibody [6]: 192 MFI
M1 anti-FLAG antibody,–,–,–,–,–,–,Mean Fluorescence Intensity (MFI) [7]: 130 MFI; Mean Fluorescence Intensity (MFI) [8]: 8.49 MFI; Mean Fluorescence Intensity (MFI) [9]: 11.3 MFI; Mean Fluorescence Intensity (MFI) [10]: 112 MFI; Mean Fluorescence Intensity (MFI) [11]: 368 MFI; Mean Fluorescence Intensity (MFI) [12]: 261 MFI
PERB11/Fc (Fc fusion),11,280,109,–,–,–,Mean Fluorescence Intensity (MFI) [2]: 10.2 MFI; Mean Fluorescence Intensity (MFI) [3]: 161 MFI; Mean Fluorescence Intensity (MFI) [4]: 12.7 MFI
B1,8,236,117,11.5,121,8.96,–
B2,9,258,118,18.4,94.5,9.58,–
B3,–,–,21.2,39.2,17.9,27.9,–
B4,11,256,120,12,14,15.4,–
B5,11,263,115,13.6,142,10.4,–
